For one test, the target named is FcεRIα (Homo sapiens) (UniProt P12319). Briefly: given as Ka. The following applies: cited from earlier work.
Test [1] addresses extracellular part of FcɛRIα with the transmembrane domain of Her2 at its C-terminus, displayed on the stable CHO cell line FI5F10 (UniProt P12319). The experiment in a line: flow cytometry on cells; 7.5 nM IgE alone (positive control), or preincubated with 750 nM QME5 or with equimolar Omalizumab, added to FI5F10 cells; after washing 5 μg/mL FITC_GAH IgE detects membrane-binding IgE.

As for IgE Cε3 Cε3 (from UniProt P01854), the Kd with FcεRIα (Homo sapiens) was 200 nM.

In test [1], human IgE (ligand) registered a percentage of positive cells (7.5 nM IgE, positive control) of 69.1%.

Source of the values: PMC3614804.
